B1: anti-HER2 humanized synthetic single domain antibody sdAb no 6 (VHH)
VHH: EVQLQASGGGFVQPGGSLRLSCAASGRGYTGTTMGWFRQAPGKEREFVSAISWTSNQTSYYADSVKGRFTISRDNSKNTVYLQMNSLRAEDTATYYCAMMPLPRWKGYWGQGTQVTVSS
notes: Purified sdAb in BLI; Any tag is not described for this assay; also called sdAb 6
B2: anti-HER2 humanized synthetic single domain antibody sdAb no 1 (VHH)
VHH: EVQLQASGGGFVQPGGSLRLSCAASGATSNISNMGWFRQAPGKEREFVSAISRAESRPLYYADSVKGRFTISRDNSKNTVYLQMNSLRAEDTATYYCAYMPLVRHKAYWGQGTQVTVSS
notes: Purified sdAb in BLI; also called sdAb 1; hsdAb1
B3: anti-HER2 humanized synthetic single domain antibody sdAb no 2 (VHH)
VHH: EVQLQASGGGFVQPGGSLRLSCAASGDSYNESSMGWFRQAPGKEREFVSAISARGNHPLYYADSVKGRFTISRDNSKNTVYLQMNSLRAEDTATYYCASMPMPKWKKYWGQGTQVTVSS
notes: Purified sdAb in BLI; also called sdAb 2; hsdAb 2
B4: anti-HER2 humanized synthetic single domain antibody sdAb no 4 (VHH)
VHH: EVQLQASGGGFVQPGGSLRLSCAASGYTSRESGMGWFRQAPGKEREFVSAISRDQDGISYYADSVKGRFTISRDNSKNTVYLQMNSLRAEDTATYYCAMIPLTRNAKYWGQGTQVTVSS
notes: Purified sdAb in BLI; Any tag is not described for this assay; also called sdAb 4
B5: anti-HER2 humanized synthetic single domain antibody sdAb no 5 (VHH)
VHH: EVQLQASGGGFVQPGGSLRLSCAASGYTFSEETMGWFRQAPGKEREFVSAISWNHTFFEYYADSVKGRFTISRDNSKNTVYLQMNSLRAEDTATYYCAVTPLPPNKAYWGQGTQVTVSS
notes: Purified sdAb in BLI; also called sdAb 5; hsdAb 5

For the test, the target named is T1, recombinant human Her2/ErbB2 Fc Tag (ACROBiosystems) (human, UniProt P04626 23-652).
T1 construct: Bought product; Captured on protein A biosensors; also called HER2-Fc; not shown: Fc tag of the bought product
The test is described as follows: BLI (Octet-HTX), HER2-Fc captured on protein A biosensors, sdAb in solution, 37 C. An excerpt: Affinity measurements: Affinity measurements can be done by surface plasmon resonance (for example as detailed in Moutel, Sandrine et al. “NaLi-H1: A universal synthetic library of humanized nanobodies providing highly functional antibodies and intrabodies.” eLife vol. 5 e16228. 19 Jul. 2016, doi:10.7554/eLife.16228). More particularly, binding affinities of selected hs2dAb fused to a 10HIS tag measured by surface plasmon resonance single cycle kinetics method. Dissociation equilibrium constant KD corresponds to the ratio between off-rate and on-rate kinetic constant Koff/Kₒₙ. […] Affinity measurements were also performed on an Octet-HTX (Sartorius) by bio-Layer Interferometry (BLI) which is an optical technique for measuring macromolecular interactions by analyzing interference patterns of white light reflected from the surface of a biosensor tip. BLI experiments were used to determine the kinetics and affinity of molecular interactions. Biosensors with proteinA were used to capture recombinant human Her2/ErbB2 Fc Tag (ACROBiosystems), the sensors were then dipped in wells containing purified sdAb to measure kinetics at 37° C.
Affinity measurement were also performed using BLI as above detailed.
Background: Biolayer interferometry detects binding as a change in optical thickness at a sensor tip.
Usually Kd stands for the concentration at which binding is half-saturated. For orientation: koff means the rate constant with which the complex falls apart. As usually defined, the kon is a measure of how fast the partners come together. As to B1, the Kd was 8.4 nM, the koff stood at 0.0066 s⁻¹ and the kon worked out at 780000 M⁻¹ s⁻¹.
The corresponding values for B2 are 4.6 nM, 0.004 s⁻¹ and 880000 M⁻¹ s⁻¹.
The corresponding values for B3 are 4.1 nM, 0.0049 s⁻¹ and 1.2e+06 M⁻¹ s⁻¹.
The corresponding values for B4 are 5.2 nM, 0.0076 s⁻¹ and 1.47e+06 M⁻¹ s⁻¹.
For the molecule B5, the Kd was 33.3 nM, the koff worked out at 0.0015 s⁻¹ and the kon was determined as 44000 M⁻¹ s⁻¹.
